Assay results reported in publication PMC2481302.

Target: human purified platelet factor 4/CXCL4 (human)
Experiment: cell attachment assay; αvβ3-CHO and mock-transfected CHO cells plated on microtiter wells coated with CXCL4 or CXCL4/CTF at the indicated concentrations; 60 min at 37°C in serum-free medium with 0.5% BSA; attached cells stained with Coomassie blue, absorbance at 620 nm; also with 0.25 mM Mn2+ or 2 mM Mg2+

- increase of cell attachment with Mn2+ or Mg2+ against no added cation: 25%
Substance: human αvβ3 integrin on CHO cells (αvβ3-CHO, clone A06) (from UniProt P06756 31-1048; P05106 27-788) (receptor)
